{"source": "patent US20240218057A1", "about": "(ROCKEFELLER UNIVERSITY, published 2024)", "data": [{"molecular_target": "T1, SARS-COV-2 RBD (SARS-COV-2, UniProt P0DTC2 319-539)", "T1 construct": "also called WT RBD", "assay": "ELISA, RBD coated", "units": {"EC50": "ng/mL"}, "values": [{"binder": "C1038 (antibody, V domains shown, IgG; V domains only) VH: QVQLVQSGAEVKKPGASVKVSCKASGYTFTSYYMHWVRQAPGQGLEWMGIINPSGGSTRYAQKFQGRVTMTRDTSTSTVYMELSSLRSEDTAVYYCAREGVGGTSYFDYWGQGTLVTVSS VL: SYELTQPPSVSVAPGKTARITCGGNNIGSKSVHWYQQKPGQAPVLVVYDDSDRPSGIPERFSGSNSGNTATLTISRVEAGDEADYYCQVWDSSSDPYVFGTGTKVTVL", "EC50": 2.46}, {"binder": "C1039 (antibody, V domains shown, IgG; V domains only) VH: QVQLVQSGAEVKKPGASVKVSCKASGYTFTSHYMHWVRQAPGQGLEWMGIINPRTRYAQMFQGRVSMNRDTSTSTVYMELSSLTSEDTAVYYCAREGLGATAYFDYWGQGTLVTVSS VL: SYELTQPPSVSVAPGKTAGITCGGSDIGSKSVHWYQQKPGQAPVLVVYDDSDRPSGIPERFSGSNSGNTATLTISRVEAGDEADYYCQVWDSSSDPYVFGTGTKVSVL", "EC50": 2.61}, {"binder": "C1041 (antibody, V domains shown, IgG; V domains only) VH: QVQLVQSGAEVKKPGASVKVSCKASGYTFSDHYIYWVRQAPGQGLEWMGIINPSAGSTSYAQKFQGRVTMTRDTSTSTVYMELSSLRSEDTAVYYCARDIVFVPATMAMDVWGLGTTVTVSS VL: EIVLTQSPATLSLSPGERATLSCRASQSVSRYLAWYQQKPGQAPRLLIYDASNRATGIPARFSGSGSGTDFTLTISSLEPEDFAVYYCQQRSNWLFTFGPGTKVDIK", "EC50": 3.65}, {"binder": "C1042 (antibody, V domains shown, IgG; V domains only) VH: QVQLVQSGAEVKKPGASVKVSCKASGYTFSDHYIYWVRQAPGQGLEWMGIINPSGGSTSYAQKFQGRVTMTRDTSTSTVYMELSSLKSEDTAVYYCSRDIVFVPATMAMDVWGQGTTVTVSS VL: EIVLTQSPATLSLSPGERATLSCRASQSVSRYLAWYQQKPGQAPRLLIYDASNRATGIPARFSGSGSGTDFTLTISSLEPEDFAVYYCQQRSNWLFTFGPGTKVDIK", "EC50": 4.55}, {"binder": "C1044 (antibody, V domains shown, IgG; V domains only) VH: QVQLQESGPGLVKPSQTLSLTCTVSGGSISSGNYYLTWIRQPAGKGLEWIGHIYTSGSTNYNPSLKSRVTISVDTSMNQFSLKLSSVTAADTAVYYCARDIPPTWYFDLWGRGTLVTVSS VL: SYELTQPPSVSVAPGKTARITCGGNNIGSKNVHWYQQKPGQAPVLVVYDDSDRPSGIPERFSGSNSGNTATLTISRVEAGDEAGYYCQVWDSTSDHLFWVFGGGTKLTVL", "EC50": 3.22}, {"binder": "C1045 (antibody, V domains shown, IgG; V domains only) VH: QVQLQESGPGLVKPSQTLSLTCTVSGDSISSGNYYWSWIRQPAGKGLEWIGHIYTSGSPNYKPSLKSRVTISLDTSKNQFSLKLTSVTAADTAMYYCARDIPSTWYFDLWGRGTLVTVSS VL: SYELTQPPSVSVAPGKTARIPCGGTDIGSKNVHWYQQKPGQAPVLAVYDDSDRPSGIPERFSGSNSGSTATLTISRVEAGDEADYYCQVWDSSGDRLSWVFGGGTKLTVL", "EC50": 2.57}, {"binder": "C838 (antibody, V domains shown, IgG; V domains only) VH: EVQLVESGGGLVQPGKSLRLSCTASGFTFEDYAMHWVRQAPGKGLEWVSGINWKSGSRGYADSAKGRFTISGNTAKNTLHLQMNSLRAEDTAFYYCAKAGVRNIAAAGPDLNFDFWGQGTLVTVSS VL: EIVLTQSPATLSLSPGERATLSCRASQSVGTYLAWYQHKLGQAPRLLIYDATKRATGIPARFSGSGSGTDFTLTISSLEPEDFAIYYCQQRITFGQGTRLEIK", "EC50": 3.03}, {"binder": "C950 (antibody, V domains shown, IgG; V domains only) VH: QVQLVESGGGLVKPGGSLRLSCAASGFTFSDYCVTWIRQAPGKGLEWLSYSNTNDSSRSYADSVKGRFTISRDNAKNSLYLQMDSLRAEDTAVYYCARRGDGNVPLFHYYYMDVWGKGTTVTVSS VL: QSVLTQPPSASGTAGQRVTISCSGGSSNIGSNTVHWYQQLPGTAPKLLIYSNYKRPSGVPDRFSGSKSGASASLAISGLQSEDEAEYYCAAWDDSANGPIFGGGTKLTVL", "EC50": 2.15}, {"binder": "C1034 (antibody, V domains shown, IgG; V domains only) VH: QLQLQESGPGLVKPSETLSLTCTVSGGSVSSNNHYWGWIRQPPGKGLEWIGSISSSGSTHHNPSLRSRVTISVDTSKNHFSLKLNSVTATDTAVYYCARVDSSGWYTGDVFDVWGQGTMVTVSS VL: DIQMTQSPSSLSASVGDRVTITCRASQTINNYLNWYQQKPGKPPKLLIYAAFSLHSGVPSRFSGSRSGTDFTLTISSLQPEDFATYYCQHSYSTMCSFGQGTKLEIK", "EC50": 2.77}, {"binder": "C1035 (antibody, V domains shown, IgG; V domains only) VH: EVQLVESGGGLIQPGGSLRLSCAASGLTVSRNYMNWVRQAPGKGLEWVSVMYSGGSTFYADSVKGRFTISRDNSKNTLYLQMNSLRAEDTAVYYCARESYGMDVWGQGTTVTVSS VL: EIVLTQSPGTLSLSPGERATLSCRASQSFSSTYLAWYQQKPGQAPRLLIYGASSRATGIPDRFSGSGSGTDFTLTISRLEPEDFAVYYCQQYVTSPWTFGQGTKVEIK", "EC50": 2.05}, {"binder": "C1036 (antibody, V domains shown, IgG; V domains only) VH: EVQLVESGGGLIQPGGSLRLSCAASGLIVSRNYMNWVRQVPGKGLEWVSVMYAGGSTFYADSVKGRFTISRDDSKNTLYLQMNSLRPEDTAVYYCARESYGMDVWGQGTTVTVSS VL: EIVLTQSPGTLSLSPGERATLSCRASQSISSTYLAWYQQKPGQAPRLLIYGASSRATGIPDRFSGSGSGTDFTLTISRLEPEDFAVYYCQQYVTSPWTFGQGTKVEIK", "EC50": 1.76}]}, {"molecular_target": "T2, SARS-COV-2 RBD (SARS-COV-2, UniProt P0DTC2 319-539)", "T2 construct": "also called WT RBD", "assay": "ELISA, RBD coated on plate", "units": {"EC50": "ng/mL"}, "values": [{"binder": "C994 (antibody, V domains shown) VH: QVQLQESGPGLVKPSGTLSLTCAVSGVSISNTNWWNWVRQPPGKGLEWIGEIYHTGSARYNPSLRSRVTISVDKSKNQFSLRLNSATAADTAIYYCARAQTPEFGELLYWGQGALVTVSS VL: DIQMTQSPSSLSASVGDRVTITCRASQSITDHLNWYQQKPGKAPKLLIYAASSLQTGVPSRFSGSGSETDFTLTISTLQPEDFATYYCQQSYGPPTYSFGQGTKLEIK", "EC50": 2.09}, {"binder": "C983 (antibody, V domains shown) VH: QVQLVESGGGVVRPGRSLRLSCAASGFTFSKYGMHWVRQAPGKGLECVASIAYDGSDDSYADSVKGRFIISRDNSKNTLYLQMNSLRAADTAVYYCAKVLGSYCSASSCHGQRPDYWGQGTLVTVSS VL: DIQMTQSPSSLSAYVGDRVTITCQASQDISNHLNWYQQKPGKAPNLLIYDASNLETGVPSRFSGSGSGTDFSFTISSLQPEDIATYYCQQYDNVPPWTFGQGTKVEIK", "EC50": 2.11}, {"binder": "C986 (antibody, V domains shown) VH: EVQLVQSGAEVKKPGETLKISCKGSGDSFSNYWIGWVRQSPGKGLEWMAIVYPGDSDARYSPSFQGQVTISADKSVTTAYLKWSSLKASDTAIYYCVRGLPVDWYFDLWGRGTLVTVSS VL: QSVLTQPPSVSGAPEQRVTISCTGSSSNIGAGHDVHWYQQLPGTAPKLLIYNNNNRPSGVPDRFSGSKSGASASLAISGLQAEDEAEYYCQSYDKSLSVLYVLGTGTKVTV", "EC50": 3.36}, {"binder": "C992 (antibody, V domains shown) VH: QVQLQESGPGLVKPSQTLSLTCTVSGGSISNGGYFWTWIRQHPVKGLEWIGYIYYSGSPHYNPSLKSRLSISLDTFKNQFSLNLSSVTAADTAVYYCARGDTFGRGYYFDFWGQGTLVTVSS VL: SYELTQPPSVSVAPGQTARITCGGNNIGTNSMHWYQQKPGQAPVLVVFDDSDRPSGIPERFSGSNSGNTATLTISRVEAGDEADYHCQVWDRSSDRPWVFGGGTKLTVL", "EC50": 3.24}, {"binder": "C993 (antibody, V domains shown) VH: EVQLLESGGGLVQPGGSLRLSCAASGFPFSIYAMSWVRQAPGKGLEWVSGMRGTTGTTYYADSVKGRFAISRDNSKNMLHLQMNSLRAEDTAVYYCAKSDHGDYVIGAFDIWGQGTMVTVSS VL: QSALTQPPSASGSPGQSVTISCTGTSGDVGGYNYVSWYQQHPGKAPKLMIYEVSKRPSGVPDRFSGSKSGNTASLTVSGLQAEDEADYYCNSYAGSNNWVFGGGTKLTVL", "EC50": 2.29}, {"binder": "C990 (antibody, V domains shown) VH: EVQLVESGGGLVRPGGSLRLSCAASGFTVGSNFMSWVRQAPGKGLEWVSLIYSGGGTHYAESVKGRFTISRDKSKNTLYLQMNSLRAEDTAVYYCANQGYYYYMDVWGKGTTVTVS VL: QSALTQPASVSGSPGQSITISCTGTSSDVGAYNYVSWHQHHPGKAPKLIIYDVSNRPSGVSNRFSGSKSGNTASLTISGLQAEDEADYYCTSYTNTTTPWVFGGGTKLTVL", "EC50": 1.85}, {"binder": "C995 (antibody, V domains shown) VH: EVQLVESGGGLIQPGRSLRLSCTASGFSVGDYAMSWFRQAPGKGLEWVGFLRNQHYGGTAEYAASVKGRFSISTDASKNIVYLQMDSLKTEDTAVYYCARNDRYIVIVPAEMLYWGQGTLVTVSS VL: EIVMTQSPATLSVSPGERATLSCRATESVYSNLAWYQQKPGQAPRLLMYDASTRAPGIPARFSGSGSGTEFTLTISSLQSEDFATYYCQQYSNWPPITFGQGTRLEIK", "EC50": 3.79}, {"binder": "C996 (antibody, V domains shown) VH: EVQLVESGGGLVQPGGSLRLSCVASGFTSTNYDMHWVRQAPGRGLQWVSSIGTAGDTYYPGSVRGRFTISRENAKNSLDLQMNSLRVGDTAVYYCARGQRGYYDRSGYYWGWRAFDIWGQGTMVTVSS VL: SYELTQPPSVSVAPGQTARITCGGNNIGNKSVYWYQQKPGQAPVLVVYDDSGRPSGIPERFSGSNSANTATLTISRVEAGDEADYYCQVWDNNSDQFGGGTKLTVL", "EC50": 3.07}, {"binder": "C987 (antibody, V domains shown) VH: QVQLQESGPGLVKPSETLSLTCNVSGDIINKYYWSWIRQSPGKGLEWIGYIYYSGTTYYNPSLKSRVTMSVGTSKQQFSLRLTSVTAADTAVYYCARMLSTEWSFNWFDPWGPGTLVTVSS VL: SYELTQPPSVSVSPGQAASITCSGDKLGDKFACWYQQKPGQSPVLVIYQNDKRPTGIPERFSGSNSGNTATLTISGTQAMDEADYFCQAWDSTSASVFGTGTKVTVL", "EC50": 3.11}, {"binder": "C984 (antibody, V domains shown) VH: QVQLVQSGTEVKKPGDSVQVSCKTSGYSFTGYYIHWVRQAPGQGLEWMGRINPNSGGTNYAQKFQGRVIMTRDTSITTAFMELTRLRYDDTAVYFCAREPIEGVIGGMIVNYYYMDVWGRGTTVTVSS VL: QSALTQPASVSGSPGQSITISCTGTSSDVGGYYYVSWYQQHPGKAPKLMIYDVSSRPSGVSNRFSGSKSGNTASLTISGLQAEDEADYYCSSYTSSNTLVVFGGGTKLTVL", "EC50": 2.76}, {"binder": "C985 (antibody, V domains shown) VH: QVQLVQSGAEVKKPGASVKVSCKASGYIFTGYYMHWVRQAPGQGLEWMGRINPNSGGSRYAEKFQGRVTMTRDTSIITAFMELRGLKSDDTAVYYCAREPIEAVPAGIIVNYYYMDVWGNGTTVTVSS VL: QSALTQPASVSGSPGQSITISCTGTSSDVGGYNYVSWYQQHPGKAPKLMIYDVTSRPSGVSDRFSGSKSGTTASLTISGLQAEDEADYYCSSFTSAFTLVVFGGGTKLTVL", "EC50": 3.67}]}]}
